Columns and labels:
[1] = target: ETR2 (Arabidopsis thaliana) (UniProt Q0WPQ2); assay: MST; settings: cited from earlier work
[2] = target: recombinant full-length Arabidopsis histidine kinase AHK1 (H10-TEV-AHK1), solubilized in FosCholine-16 (Arabidopsis thaliana) (UniProt Q9SXL4); assay: MST; 40 nM AlexaFluor488-labelled AHK1 titrated with unlabelled AHK1 (12 uM to 0.4 nM); 50 mM Tris, 300 mM NaCl, 0.015% FosCholine-16, glycerol, pH 7.6; 40% MST power, 70% LED power; initial fluorescence evaluated; one-binding-site model; apparent Kd; monomer to dimer
[3] = target: ETR1 (Arabidopsis thaliana) (UniProt P49333); assay: MST; settings: cited from earlier work
[4] = target: AHP1 (Arabidopsis thaliana) (UniProt Q9ZNV9); settings: cited from earlier work
Chain of AHP1 (Arabidopsis thaliana) (Q9ZNV9 whole entry): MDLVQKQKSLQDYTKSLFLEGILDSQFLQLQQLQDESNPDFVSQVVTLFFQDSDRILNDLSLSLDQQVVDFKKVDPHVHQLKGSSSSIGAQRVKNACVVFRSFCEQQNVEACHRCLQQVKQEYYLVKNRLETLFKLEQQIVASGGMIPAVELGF

[5] = target: T1, recombinant full-length Arabidopsis histidine kinase AHK1 (H10-TEV-AHK1), solubilized in FosCholine-16 (Arabidopsis thaliana, UniProt Q9SXL4 1-1207, AlexaFluor488-NHS label on the labelled copy (40 nM) used in MST; the titrated copy is unlabelled); assay: MST; 40 nM AlexaFluor488-labelled AHK1 titrated with AHP2-GST (12.5 uM to 0.4 nM); HEPES/Tris 50 mM, 300 mM NaCl, FosCholine-16, 5% glycerol, pH 7.6; 40% MST power, 30% LED power; T-Jump evaluated; one-binding-site model; apparent Kd; seven measurements; settings: both partners purified
T1 construct: Arabidopsis histidine kinase 1 (AHK1), Arabidopsis thaliana, full length; cloned into pET16b-H10-TEV with primers from the ATG to the stop codon; a TEV site lies between the tag and AHK1; No step that cleaves the tag is described; also called AHK1 sensor kinase; AHK1 osmosensor; source: E. coli BL21 (DE3) with pRARE, solubilized with 1% FosCholine-16, purified (Ni-NTA)
T1 sequence (looked up): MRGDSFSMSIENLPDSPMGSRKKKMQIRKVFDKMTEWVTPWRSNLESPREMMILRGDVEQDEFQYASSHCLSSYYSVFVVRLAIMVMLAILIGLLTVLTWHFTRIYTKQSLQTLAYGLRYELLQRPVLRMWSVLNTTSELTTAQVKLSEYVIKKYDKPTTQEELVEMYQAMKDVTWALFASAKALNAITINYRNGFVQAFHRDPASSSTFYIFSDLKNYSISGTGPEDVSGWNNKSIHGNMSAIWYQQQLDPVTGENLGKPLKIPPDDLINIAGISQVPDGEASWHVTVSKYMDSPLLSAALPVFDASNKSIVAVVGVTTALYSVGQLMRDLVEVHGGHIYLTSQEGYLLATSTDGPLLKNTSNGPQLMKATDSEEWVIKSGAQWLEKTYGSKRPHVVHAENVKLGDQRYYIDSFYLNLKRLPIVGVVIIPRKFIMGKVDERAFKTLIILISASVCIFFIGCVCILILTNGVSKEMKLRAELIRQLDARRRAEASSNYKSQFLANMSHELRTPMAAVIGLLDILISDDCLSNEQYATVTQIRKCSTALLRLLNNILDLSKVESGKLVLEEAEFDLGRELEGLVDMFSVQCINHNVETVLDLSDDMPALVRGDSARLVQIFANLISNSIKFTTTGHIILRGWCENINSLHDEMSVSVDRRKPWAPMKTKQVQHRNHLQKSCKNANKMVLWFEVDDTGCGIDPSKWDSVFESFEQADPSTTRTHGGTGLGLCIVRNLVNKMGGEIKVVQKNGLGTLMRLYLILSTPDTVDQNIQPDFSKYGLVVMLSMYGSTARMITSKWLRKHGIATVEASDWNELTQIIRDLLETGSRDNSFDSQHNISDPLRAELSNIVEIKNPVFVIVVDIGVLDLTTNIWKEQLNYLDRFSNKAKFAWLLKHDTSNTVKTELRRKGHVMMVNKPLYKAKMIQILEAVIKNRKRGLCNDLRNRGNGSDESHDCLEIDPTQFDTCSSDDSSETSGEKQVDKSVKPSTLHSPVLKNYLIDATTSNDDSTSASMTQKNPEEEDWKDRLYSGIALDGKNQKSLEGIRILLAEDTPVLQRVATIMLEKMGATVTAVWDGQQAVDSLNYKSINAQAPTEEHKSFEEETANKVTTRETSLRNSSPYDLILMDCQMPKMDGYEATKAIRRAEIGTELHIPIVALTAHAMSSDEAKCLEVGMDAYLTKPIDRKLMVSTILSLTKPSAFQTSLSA

ETR2 (from UniProt Q0WPQ2)
Kd [1]: 96 nM

recombinant full-length Arabidopsis histidine kinase AHK1 (H10-TEV-AHK1), solubilized in FosCholine-16 (from UniProt Q9SXL4 1-1207) (receptor)
Kd [2]: 208 nM

ETR1 (from UniProt P49333)
Kd [3]: 326 nM | Kd [4]: 1500 nM

B1: GST-fusion protein of Arabidopsis histidine phosphotransfer protein 2 (AHP2) (natural protein, Arabidopsis thaliana, UniProt Q9ZNV8 1-156, looked up)
chain: MDALIAQLQRQFRDYTISLYQQGFLDDQFTELKKLQDDGSPDFVSEVLSLFFEDCVKLISNMARALDTTGTVDFSQVGASVHQLKGSSSSVGAKRVKTLCVSFKECCEAKNYEGCVRCLQQVDIEYKALKTKLQDMFNLEKQIIQAGGIVPQVDIN
notes: Arabidopsis histidine phosphotransfer protein 2 (AHP2), Arabidopsis thaliana; cDNA cloned into pGEX-6P-1; The apparent mass is 44 kDa; also called AHP2-GST; GST-tagged AHP2
Kd [5]: 317 ± 62 nM

— PMC7154865, “High-Level Expression, Purification and Initial Characterization of Recombinant Arabidopsis Histidine Kinase AHK1” (Plants, 2020)
